In paper PMC11381518, “Human cell surface-AAV interactomes identify LRP6 as blood-brain barrier transcytosis receptor and immune cytokine IL3 as AAV9 binder” (Nature Communications, 2024):

Experiments:
Assay in all cases: pull-down; prey AAVs mixed with His-tagged bait protein and Ni-NTA resin in DPBS with 20 mM imidazole, 1 h at 4 °C; eluate analysed by Western blot with anti-VP1/VP2/VP3 and anti-6xHis
Details in all cases: both partners purified
[1] = molecular target: T1, AAV9 capsid (adeno-associated virus 9, UniProt Q6JC40 1-736)
T1 construct: AAV9 capsid protein VP1; numbers count on VP1; Assembled capsid with a packaged genome; also called AAV9 (parent of vectors below); source: HEK293 cells, triple transfected, purified (iodixanol gradient); copies: 60

[2] = molecular target: T2, AAV.CAP-Mac capsid (adeno-associated virus 9, UniProt Q6JC40 1-736, VR VIII AA587-590 AQ - - - - - - - AQ to AQLNTTKPIAQ)
T2 construct: AAV9 capsid protein VP1 with an insertion in VR-VIII; numbers count on VP1; source: HEK293 cells, triple transfected, purified (iodixanol gradient); copies: 60

[3] = molecular target: T3, AAV9-X1.1 capsid (adeno-associated virus 9, UniProt Q6JC40 1-736, VR IV AA452-458 NGSGQNQ to DGAATKN | VR VIII AA587-590 AQ - - - - - - - AQ to …)
T3 construct: AAV9 capsid protein VP1 with changes in VR-IV and VR-VIII; numbers count on VP1; also called AAV-X1.1; source: HEK293 cells, triple transfected, purified (iodixanol gradient); copies: 60

Measured: binding result

B1: human Adeno-Associated Virus Receptor (AAVR) PKD2 domain (AA 401-498) tagged with 6xHis (domain or fragment)
chain: EPRKNRPPIAIVSPQFQEISLPTTSTVIDGSQSTDDDKIVQYHWEELKGPLREEKISEDTAILKLSKLVPGNYTFSLTVVDSDGATNSTTANLTVNKA
notes: human AAVR (KIAA0319L), PKD2 domain, AA 401-498; source: E. coli BL21(DE3)-RIPL, purified (Ni-NTA)
binds: all assays above
